Reference: patent publication US20130136748A1 (Ablynx, published 2013)
Where two headings read alike, the source gives them in different places. One block for each molecule: values may come before it.

Assays:
hHER3 full length [1] = target: T1, hHER3 full length (human, UniProt P21860 20-1342); experiment: FACS competition with HRG1-β1-EGF, CHO-HER3
[2] = target: T2, human HER3-Fc (R&D Systems, 348-RB) (human, UniProt P21860 20-643); experiment: SPR, HER3-Fc captured by anti-Fc
T2 construct: Bought; also called hHER3-Fc; Fc-HER3; Fc part of the bought chimera not given, not described

hHER3 full length [3] = target: T1, hHER3 full length; experiment: cell-based or functional assay
hHER3 full length [4] = target: T1, hHER3 full length; experiment: cell-based or functional assay; remark: listed apart in the source
[5] = target: T3, hHER3 ECD (human HER3 extracellular domain) (human, UniProt P21860 20-643); experiment: ELISA, coated hHER3-ECD
T3 construct: also called recombinant HER3-ECD

[6] = target: T4, cHER3ECD (Maccaca fascicularis HER3 extracellular domain) (Macaca fascicularis, UniProt P21860 20-643 (human entry)); experiment: ELISA, coated cHER3-ECD
T4 construct: also called cyno HER3ECD; cyno HER3-ECD
T4 chain: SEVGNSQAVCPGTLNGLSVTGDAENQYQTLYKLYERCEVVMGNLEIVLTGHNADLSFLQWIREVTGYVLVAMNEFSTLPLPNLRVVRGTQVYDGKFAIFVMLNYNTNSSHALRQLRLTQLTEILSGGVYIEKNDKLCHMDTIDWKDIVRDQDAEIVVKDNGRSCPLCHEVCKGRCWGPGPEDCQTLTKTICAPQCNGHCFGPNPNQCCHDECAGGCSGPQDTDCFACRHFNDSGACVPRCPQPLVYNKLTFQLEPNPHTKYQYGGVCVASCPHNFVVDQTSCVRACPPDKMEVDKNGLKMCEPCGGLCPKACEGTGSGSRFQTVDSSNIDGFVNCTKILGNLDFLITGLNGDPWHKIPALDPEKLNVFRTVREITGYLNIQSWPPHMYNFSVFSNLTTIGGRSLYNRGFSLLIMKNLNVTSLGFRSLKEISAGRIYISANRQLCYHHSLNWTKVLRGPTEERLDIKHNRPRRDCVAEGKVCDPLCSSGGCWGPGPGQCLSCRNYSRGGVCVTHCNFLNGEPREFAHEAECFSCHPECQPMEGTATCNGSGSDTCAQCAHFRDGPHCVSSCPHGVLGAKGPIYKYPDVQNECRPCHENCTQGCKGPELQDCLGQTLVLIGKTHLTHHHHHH

hHER3 full length [7] = target: T1, hHER3 full length; experiment: FACS, 400 nM, competitor 04C07-biotin
hHER3 full length [8] = target: T1, hHER3 full length; experiment: FACS, 400 nM, competitor 04F10-biotin
hHER3 full length [9] = target: T1, hHER3 full length; experiment: FACS, 400 nM, competitor 17C08-biotin
hHER3 full length [10] = target: T1, hHER3 full length; experiment: FACS, 400 nM, competitor 18E08-biotin
hHER3 full length [11] = target: T1, hHER3 full length; experiment: FACS, 400 nM, competitor 21B02-biotin
hHER3 full length [12] = target: T1, hHER3 full length; experiment: FACS, 400 nM, competitor 23F05-biotin
hHER3 full length [13] = target: T1, hHER3 full length; experiment: cell-based or functional assay; remark: listed apart in the source
[14] = target: T2, human HER3-Fc (R&D Systems, 348-RB); experiment: HRG competition alphascreen
hHER3 full length [15] = target: T1, hHER3 full length; experiment: cell-based or functional assay; remark: listed apart in the source
[16] = target: T3, hHER3 ECD (human HER3 extracellular …); experiment: SPR off rate on HER3-ECD, periplasmic extract
[17] = target: T2, human HER3-Fc (R&D Systems, 348-RB); experiment: 18G11 competition alphascreen, periplasmic extract
[18] = target: T2, human HER3-Fc (R&D Systems, 348-RB); experiment: HRG competition alphascreen; remark: listed apart in the source

Molecule: Control MAb1 (antibody)
IC50 (hHER3 full length [1]): 9.4 nM

Molecule: Control Fab2
Kd [2]: 2.77 nM | kon [2]: 93400 M⁻¹ s⁻¹

Molecule: Control MAb2 (antibody)
IC50 (hHER3 full length [1]): 67.2 nM

Molecule: Control Fab1
Kd [2]: 0.57 nM | kon [2]: 703000 M⁻¹ s⁻¹

B1: 05A09 (VHH)
VHH: EVQLVESGGGLVQAGGSLRLSCAASGFTFDDYAIGWFRQAPGKEREGVSCISSSDGSTVYADSVKGRFTISSDNAKNTVYLQMNSLKPEDTAVYYCAAERRRGYSDLCRFYYGMDYWGKGTQVTVSS
IC50, HRG1-β1 induced pHER3, MCF-7 (hHER3 full length [3]): 9.12e-08 M | IC50, HRG1-β1 induced pHER3, MDA-MB468 (hHER3 full length [3]): 1.28e-07 M | IC50, HRG1-β1 induced pAkt, MCF-7 (hHER3 full length [4]): 2.9e-07 M | inhibition of HRG1-β1 induced pERK1/2, MCF-7 (hHER3 full length [4]): < 50 % inhibition | EC50 [5]: 1.45 nM | EC50 [6]: 1.3 nM | % competition (hHER3 full length [7]): 0% | % competition (hHER3 full length [8]): 0% | % competition (hHER3 full length [9]): 48% | % competition (hHER3 full length [10]): 78% | % competition (hHER3 full length [11]): 22% | % competition (hHER3 full length [12]): 10%

B6: HER3MS00068 (VHH)
VHH: EVQLVESGGGLVQPGGSLRLSCAASGTLFKINAMGWYRQAPGKRRELVALITSSDTTDYAESVEGRFTISRDNTWNAVYLQMNSLKPEDTAVYYCHSDHYSGGVPEKRVIMYGQGTLVTVSS
notes: 18G11 M99G
IC50 pHER3 blocking, HRG stimulated MCF7 (hHER3 full length [15]): 8.88e-08 M | koff [16]: 0.001 s⁻¹ | % inhibition [17]: 84.4%

B8: HER3MS00070 (VHH)
VHH: EVQLVESGGGLVQPGGSLRLSCAASGTLFKINAMGWYRQAPGKRRELVALITSSDTTDYAESVEGRFTISRDNTWNAVYLQMNSLKPEDTAVYYCHSDHYSIGVPEKRVIMYGQGTLVTVSS
notes: 18G11 M99I
IC50 pHER3 blocking, HRG stimulated MCF7 (hHER3 full length [15]): 3.78e-08 M | koff [16]: 0.00064 s⁻¹ | % inhibition [17]: 82.2%

B10: HER3MS00069 (VHH)
VHH: EVQLVESGGGLVQPGGSLRLSCAASGTLFKINAMGWYRQAPGKRRELVALITSSDTTDYAESVEGRFTISRDNTWNAVYLQMNSLKPEDTAVYYCHSDHYSLGVPEKRVIMYGQGTLVTVSS
notes: 18G11 M99L
IC50 pHER3 blocking, HRG stimulated MCF7 (hHER3 full length [15]): 5.27e-08 M | koff [16]: 0.00081 s⁻¹ | % inhibition [17]: 83%

B11: HER3MS00071 (VHH)
VHH: EVQLVESGGGLVQPGGSLRLSCAASGTLFKINAMGWYRQAPGKRRELVALITSSDTTDYAESVEGRFTISRDNTWNAVYLQMNSLKPEDTAVYYCHSDHYSVGVPEKRVIMYGQGTLVTVSS
notes: 18G11 M99V
IC50 pHER3 blocking, HRG stimulated MCF7 (hHER3 full length [15]): 7.35e-08 M | koff [16]: 0.00084 s⁻¹ | % inhibition [17]: 80.9%

B13: 34A04 (VHH)
VHH: EVQLVESGGGLVQAGGSLRLSCAASGFTFDDYTIGWFRQAPGKEREEISCISNNDGSTYYTNSVKGRFTISSDNAKNTVYLQMNSLKPEDTAVYYCAASPHGCWYDLIPLQADFGSWGQGTQVTVSS
IC50, HRG1-β1 induced pHER3, MCF-7 (hHER3 full length [3]): 3.02e-08 M | IC50, HRG1-β1 induced pHER3, MDA-MB468 (hHER3 full length [3]): 2.2e-08 M | IC50, HRG1-β1 induced pAkt, MCF-7 (hHER3 full length [4]): 6.26e-08 M | IC50, HRG1-β1 induced pERK1/2, MCF-7 (hHER3 full length [4]): 3.13e-07 M | EC50 [5]: 0.57 nM | EC50 [6]: 0.49 nM | Kd [2]: 2.7 nM | kon [2]: 2.63e+06 M⁻¹ s⁻¹ | % competition (hHER3 full length [7]): 22% | % competition (hHER3 full length [8]): 3% | % competition (hHER3 full length [9]): 14% | % competition (hHER3 full length [10]): 25% | % competition (hHER3 full length [11]): 99% | % competition (hHER3 full length [12]): 97%

Further lines, results first:

IC50 pHER3, HRG1-β1 stimulated MCF7 (hHER3 full length [13]): 1.21e-07 M | IC50 [14]: 5.1 nM
B2: HER3MS00129 (VHH)
VHH: EVQLVESGGGLVQPGGSLRLSCAASGFTFSSYPMSWVRQAPGKGPEWVSTVSPGGITTSYADSVKGRFTISRDNSKNTLYLQMNSLRPEDTAVYYCLRDLGNRGQGTLVTVSS
notes: 04C07 basic + A46E + N101G

IC50 pHER3, HRG1-β1 stimulated MCF7 (hHER3 full length [13]): 9.38e-09 M | IC50 [14]: 0.88 nM
B3: HER3MS00130 (VHH)
VHH: EVQLVESGGGLVQPGGSLRLSCAASGFTFSSYPMSWVRQAPGKGPAWVSTVSPGGITTSYADSVKGRFTISRDNSKNTLYLQMNSLRPEDTAVYYCLRDLGNRGQGTLVTVSS
notes: 04C07 basic + N101G

IC50 pHER3, HRG1-β1 stimulated MCF7 (hHER3 full length [13]): 2.26e-07 M | IC50 [14]: 5.8 nM
B4: HER3MS00131 (VHH)
VHH: EVQLVESGGGLVQPGGSLRLSCAASGFTFSSYPMSWVRQAPGKGPEWVSTVSPGGITTSYADSVKGRFTISRDNSKNTLYLQMNSLRPEDTAVYYCLRDLSNRGQGTLVTVSS
notes: 04C07 basic + A46E + N101S

IC50 pHER3, HRG1-β1 stimulated MCF7 (hHER3 full length [13]): 1.31e-08 M | IC50 [14]: 1 nM
B5: HER3MS00132 (VHH)
VHH: EVQLVESGGGLVQPGGSLRLSCAASGFTFSSYPMSWVRQAPGKGPAWVSTVSPGGITTSYADSVKGRFTISRDNSKNTLYLQMNSLRPEDTAVYYCLRDLSNRGQGTLVTVSS
notes: 04C07 basic + N101S

IC50 pHER3 blocking, HRG stimulated MCF7 (hHER3 full length [15]): 5.76e-08 M | koff [16]: 0.00082 s⁻¹ | % inhibition [17]: 88%
B7: HER3MS00072 (VHH)
VHH: EVQLVESGGGLVQPGGSLRLSCAASGTLFKINAMGWYRQAPGKRRELVALITSSDTTDYAESVEGRFTISRDNTWNAVYLQMNSLKPEDTAVYYCHSDHYSMGVPEKRVILYGQGTLVTVSS
notes: 18G11 M102L

IC50 pHER3 blocking, HRG stimulated MCF7 (hHER3 full length [15]): 8.75e-08 M | koff [16]: 0.00083 s⁻¹ | % inhibition [17]: 84.4%
B9: HER3MS00073 (VHH)
VHH: EVQLVESGGGLVQPGGSLRLSCAASGTLFKINAMGWYRQAPGKRRELVALITSSDTTDYAESVEGRFTISRDNTWNAVYLQMNSLKPEDTAVYYCHSDHYSMGVPEKRVIDYGQGTLVTVSS
notes: 18G11 M102D

IC50 pHER3 blocking, HRG stimulated MCF7 (hHER3 full length [15]): 6.3e-08 M | koff [16]: 0.00049 s⁻¹ | % inhibition [17]: 82.7%
B12: HER3MS00074 (VHH)
VHH: EVQLVESGGGLVQPGGSLRLSCAASGTLFKINAMGWYRQAPGKRRELVALITSSDTTDYAESVEGRFTISRDNTWNAVYLQMNSLKPEDTAVYYCHSDHYSMGVPEKRVIEYGQGTLVTVSS
notes: 18G11 M102E

IC50 [18]: 0.753 nM
B14: HER3MS00077 (VHH)
VHH: EVQLVESGGGLVQPGGSLRLSCAASGSIGGLNAMAWYRQAPGKERELVAGIFGVGSTRYADSVKGRFTISRDNSKNTVFLQMNSLRSEDTAVYYCRMSSVTRGSSDYWGQGTLVTVSS
notes: 17B05 basic + I73N; also called HER3MS0077

IC50 [18]: 0.811 nM
B15: HER3MS00078 (VHH)
VHH: EVQLVESGGGLVQPGGSLRLSCAASGSIGGLNAMAWYRQAPGKERELVAGIFGVGSTRYADSVKGRFTISRDISKNTVYLQMNSLRSEDTAVYYCRMSSVTRGSSDYWGQGTLVTVSS
notes: 17B05 basic + F79Y; also called HER3MS0078

IC50 [18]: 3.08 nM
B16: HER3MS00079 (VHH)
VHH: EVQLVESGGGLVQPGGSLRLSCAASGSIGGLNAMAWYRQAPGKERELVAGIFGVGSTRYADSVKGRFTISRDISKNTVFLQMNSLRSEDTAVYYCAMSSVTRGSSDYWGQGTLVTVSS
notes: also called HER3MS0079

IC50 [18]: 5.89 nM
B17: HER3MS00081 (VHH)
VHH: EVQLVESGGGLVQPGGSLRLSCAASGSIGGLNAMAWYRQAPGKERELVAGIFGVGSTRYADSVKGRFTISRDNSKNTVFLQMNSLRSEDTAVYYCAMSSVTRGSSDYWGQGTLVTVSS
notes: also called HER3MS0081

IC50 [18]: 4.05 nM
B18: HER3MS00082 (VHH)
VHH: EVQLVESGGGLVQPGGSLRLSCAASGSIGGLNAMAWYRQAPGKERELVAGIFGVGSTRYADSVKGRFTISRDISKNTVYLQMNSLRSEDTAVYYCAMSSVTRGSSDYWGQGTLVTVSS
notes: also called HER3MS0082
